Data: patent publication US20220119824A1

Tests used:
[1] = target: IL-12 receptor on HEK-Blue™ IL-12 cells (InvivoGen) (UniProt P42701); assay: cell-based or functional assay
[2] = target: recombinant murine CTLA-4-human IgG1 Fc chimera (R&D Systems) (mouse; human) (UniProt P09793); assay: competitive ELISA: mouse CD80 coated (competitor), murine CTLA-4-human IgG1 Fc chimera at 10 ng/ml mixed with scFv supernatant, anti-human IgG1-HRP
[3] = target: recombinant murine CTLA-4-human IgG1 Fc chimera (R&D Systems) (mouse; human) (UniProt P09793); assay: competitive ELISA: mouse CD86 coated (competitor), murine CTLA-4-human IgG1 Fc chimera at 10 ng/ml mixed with scFv supernatant, anti-human IgG1-HRP
[4] = target: mouse TGF-β1 (R&D systems) (mouse) (UniProt P04202); assay: direct ELISA with mouse TGF-β1 on supernatant of transfected HEK293T cells
[5] = target: mouse TGF-β1 (R&D systems) (mouse) (UniProt P04202); assay: direct ELISA with mouse TGF-β1 on concentrated supernatant of transfected HEK293T cells

Row | Substance | STAT4-SEAP reporter in HEK-Blue IL-12 cells co-cultured with transfected HEK cells (Absorbance/% GFP) (Absorbance/% GFP) [1] | other results
1 | Human membrane bound IL-12p70 (ligand) | 0.237 | 
2 | muIL-12p70 (soluble murine IL-12p70) (from UniProt P43432 23-335; P43431 23-215) (ligand) | 0.11 | 
3 | Mouse membrane bound IL-12p70 (ligand) | 0.117 | 
4 | huIL-12p70 (soluble human IL-12p70) (from UniProt P29460 23-328; P29459 23-219) (ligand) | 0.11 | 
5 | Anti-CTLA-4 scFv (ipilimumab scFv antibody fragment) |  | % CD80 Blockade Activity [2]: 7%; % CD86 Blockade Activity [3]: 32.5%
6 | Soluble mouse TGFβ receptor II Fc (from UniProt Q62312 24-166) (Fc fusion) |  | Absorbance at 450 nm (absorbance at 450 nm) [4]: 1.51; Absorbance at 450 nm (absorbance at 450 nm) [5]: 1.52
